T1: HiBiT-FZD4-mCherry (mouse, UniProt Q61088 37-537)
T1 chain: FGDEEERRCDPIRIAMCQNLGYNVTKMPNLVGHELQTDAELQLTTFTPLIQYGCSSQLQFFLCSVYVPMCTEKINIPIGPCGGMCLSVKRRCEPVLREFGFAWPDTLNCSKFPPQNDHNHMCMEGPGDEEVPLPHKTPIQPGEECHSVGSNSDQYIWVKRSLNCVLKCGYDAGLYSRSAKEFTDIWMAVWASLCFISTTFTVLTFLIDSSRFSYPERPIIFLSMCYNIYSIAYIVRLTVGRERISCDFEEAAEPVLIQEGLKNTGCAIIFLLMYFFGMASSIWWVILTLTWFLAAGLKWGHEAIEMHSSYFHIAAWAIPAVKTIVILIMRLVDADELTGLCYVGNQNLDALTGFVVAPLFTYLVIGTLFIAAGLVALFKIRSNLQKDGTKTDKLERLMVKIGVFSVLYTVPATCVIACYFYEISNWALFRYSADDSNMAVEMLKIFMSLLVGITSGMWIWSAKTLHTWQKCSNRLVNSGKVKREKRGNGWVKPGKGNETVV

T2: HiBiT-FZD8-mCherry (mouse, UniProt Q61091 28-685)
T2 chain: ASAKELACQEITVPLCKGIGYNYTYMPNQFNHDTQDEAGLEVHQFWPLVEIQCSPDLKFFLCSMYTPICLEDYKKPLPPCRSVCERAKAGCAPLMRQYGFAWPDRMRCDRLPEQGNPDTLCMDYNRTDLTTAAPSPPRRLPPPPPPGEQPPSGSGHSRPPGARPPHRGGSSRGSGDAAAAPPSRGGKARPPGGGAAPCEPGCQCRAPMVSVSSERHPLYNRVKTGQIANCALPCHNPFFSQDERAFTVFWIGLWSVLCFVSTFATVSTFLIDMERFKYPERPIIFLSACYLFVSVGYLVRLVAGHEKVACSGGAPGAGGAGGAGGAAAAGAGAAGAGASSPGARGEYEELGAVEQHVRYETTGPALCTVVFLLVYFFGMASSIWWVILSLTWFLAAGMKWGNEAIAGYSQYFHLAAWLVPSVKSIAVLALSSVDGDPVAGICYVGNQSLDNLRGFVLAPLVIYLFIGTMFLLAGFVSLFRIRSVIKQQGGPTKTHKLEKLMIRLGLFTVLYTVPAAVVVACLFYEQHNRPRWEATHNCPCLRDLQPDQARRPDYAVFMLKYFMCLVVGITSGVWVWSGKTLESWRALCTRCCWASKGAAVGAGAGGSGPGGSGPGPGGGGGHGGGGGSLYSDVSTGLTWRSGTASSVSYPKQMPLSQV

T3: HiBiT-FZD5-mCherry (U-2 OS cells) (mouse, UniProt Q9EQD0 27-585)
T3 chain: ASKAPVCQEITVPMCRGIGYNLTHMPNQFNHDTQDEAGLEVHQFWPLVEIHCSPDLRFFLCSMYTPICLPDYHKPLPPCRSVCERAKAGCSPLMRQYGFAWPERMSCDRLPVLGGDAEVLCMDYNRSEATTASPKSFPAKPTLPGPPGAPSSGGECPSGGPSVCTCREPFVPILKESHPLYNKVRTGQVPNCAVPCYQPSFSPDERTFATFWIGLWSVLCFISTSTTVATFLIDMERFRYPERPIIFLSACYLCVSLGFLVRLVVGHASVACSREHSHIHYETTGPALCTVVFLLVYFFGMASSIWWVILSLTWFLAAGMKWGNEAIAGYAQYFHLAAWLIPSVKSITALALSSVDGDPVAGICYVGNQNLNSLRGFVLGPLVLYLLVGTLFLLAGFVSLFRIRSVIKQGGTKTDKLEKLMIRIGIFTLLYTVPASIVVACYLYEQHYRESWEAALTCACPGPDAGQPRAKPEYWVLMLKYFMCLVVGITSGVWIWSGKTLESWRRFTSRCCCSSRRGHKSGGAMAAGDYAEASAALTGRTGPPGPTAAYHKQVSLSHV


How the values were obtained:
[1] = molecular target: HiBiT-FZD2-mCherry (mouse, UniProt Q9JIP6 29-570)
[2] = molecular target: HiBiT-FZD1-mCherry (mouse, UniProt O70421 69-642)
[3] = molecular target: T1, HiBiT-FZD4-mCherry
[4] = molecular target: T2, HiBiT-FZD8-mCherry
[5] = molecular target: T3, HiBiT-FZD5-mCherry (U-2 OS cells)
[6] = molecular target: HiBiT-FZD7-mCherry (mouse, UniProt Q61090 33-572)

Chain of HiBiT-FZD1-mCherry (O70421 69-642): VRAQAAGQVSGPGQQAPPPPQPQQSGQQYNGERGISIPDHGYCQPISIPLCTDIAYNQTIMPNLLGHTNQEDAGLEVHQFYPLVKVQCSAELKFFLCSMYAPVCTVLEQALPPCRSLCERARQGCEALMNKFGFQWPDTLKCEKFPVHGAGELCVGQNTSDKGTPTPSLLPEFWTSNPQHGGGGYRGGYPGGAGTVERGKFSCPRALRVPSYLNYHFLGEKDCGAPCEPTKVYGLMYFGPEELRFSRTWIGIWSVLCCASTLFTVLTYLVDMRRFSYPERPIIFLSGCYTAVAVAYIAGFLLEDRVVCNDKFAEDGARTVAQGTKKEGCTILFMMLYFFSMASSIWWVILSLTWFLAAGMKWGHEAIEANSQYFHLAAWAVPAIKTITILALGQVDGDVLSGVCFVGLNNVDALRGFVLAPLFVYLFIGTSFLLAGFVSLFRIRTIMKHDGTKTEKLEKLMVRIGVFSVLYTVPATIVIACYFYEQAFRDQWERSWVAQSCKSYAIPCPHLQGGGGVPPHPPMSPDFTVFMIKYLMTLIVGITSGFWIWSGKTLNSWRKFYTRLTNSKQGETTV
Chain of HiBiT-FZD2-mCherry (Q9JIP6 29-570): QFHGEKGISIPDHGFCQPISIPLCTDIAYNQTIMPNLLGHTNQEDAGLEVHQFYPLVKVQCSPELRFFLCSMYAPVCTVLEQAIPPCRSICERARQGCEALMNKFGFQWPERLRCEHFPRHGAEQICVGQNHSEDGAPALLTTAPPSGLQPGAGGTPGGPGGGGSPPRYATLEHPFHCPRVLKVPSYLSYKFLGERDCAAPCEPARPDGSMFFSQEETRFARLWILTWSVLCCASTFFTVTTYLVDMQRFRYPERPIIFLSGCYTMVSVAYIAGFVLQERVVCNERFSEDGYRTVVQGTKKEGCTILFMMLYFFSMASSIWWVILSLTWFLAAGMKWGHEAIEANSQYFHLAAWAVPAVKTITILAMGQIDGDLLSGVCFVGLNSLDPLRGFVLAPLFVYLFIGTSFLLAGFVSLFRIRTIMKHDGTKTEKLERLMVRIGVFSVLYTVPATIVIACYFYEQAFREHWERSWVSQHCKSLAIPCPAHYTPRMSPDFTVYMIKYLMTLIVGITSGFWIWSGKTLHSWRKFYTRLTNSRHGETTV

Kd [1] | Kd [2] | Kd [3] | Kd [4] | Kd [5] | Kd [6] | Binder
3.85 nM | 14.4 nM | 3.56 nM | 7.52 nM | 16.2 nM | 1.25 nM | eGFP-Wnt5a (ligand) IIGAQPLCSQLAGLSQGQKKLCHLYQDHMQYIGEGAKTGIKECQYQFRHRRWNCSTVDNTSVFGRVMQIGSRETAFTYAVSAAGVVNAMSRACREGELSTCGCSRAARPKDLPRDWLWGGCGDNIDYGYRFAKEFVDARERERIHAKGSYESARILMNLHNNEAGRRTVYNLADVACKCHGVSGSCSLKTCWLQLADFRKVGDALKEKYDSAAAMRLNSRGKLVQVNSRFNSPTTQDLVYIDPSPDYCVRNESTGSLGTQGRLCNKTSEGMDGCELMCCGRGYDQFKTVQTERCHCKFHWCCYVKCKKCTEIVDQFVCK
10.6 nM | 30.7 nM | 21.8 nM | 6.62 nM | 14.2 nM | 10.3 nM | eGFP-Wnt16 (ligand) NWMWLGIASFGVPEKLGCANLPLNSRQKELCKRKPYLLPSIREGARLGIQECGSQFRHERWNCMITAAATTAPMGASPLFGYELSSGTKETAFIYAVMAAGLVHSVTRSCSAGNMTECSCDTTLQNGGSASEGWHWGGCSDDVQYGMWFSRKFLDFPIGNTTGKENKVLLAMNLHNNEAGRQAVAKLMSVDCRCHGVSGSCAVKTCWKTMSSFEKIGHLLKDKYENSIQISDKTKRKMRRREKDQRKIPIHKDDLLYVNKSPNYCVEDKKLGIPGTQGRECNRTSEGADGCNLLCCGRGYNTHVVRHVERCECKFIWCCYVRCRRCESMTDVHTCK
